In patent US20240076398A1 (VISTERRA, published 2024):
No end group written: not given here.

How the values were obtained:
[1] = target: T1, biotinylated cyclic ECL2 peptide of C5aR1 (human, also: biotinylated, position not given here, cyclic, way of cyclisation not given here); assay: BLI, peptide on streptavidin sensor
T1 peptide: RVVREEYFPPKVLC
Text: The epitope mapping was undertaken, using biolayer interferometry, on a series of exemplary anti-C5aR1 antibodies generated as described in Example 1. Briefly, for each antibody, biotinylated peptides representing ECL2, the N-terminus with tyrosine sulfation, and the N-terminus without tyrosine sulfation, were immobilized in a streptavidin biosensor. Subsequently, the biosensor was exposed to […] of antibody to detect antibody binding to the immobilized peptide. The results of the epitope mapping study are shown in Table 4 (“+” indicates binding to the listed peptide; “−” indicates lack of binding to the listed peptide).

[2] = target: T2, human C5aR1 (complement component 5a receptor 1) (human, UniProt P21730 1-350, sulfated tyrosines at positions 11 and 14); assay: flow cytometry on human neutrophils, titration 10^-7.5 to 10^-12 M
T2 construct: on Expi293 cells, C5aR1-U937 cells or human neutrophils in flow cytometry; also called CD88; C5a anaphylatoxin chemotactic receptor 1
T2 chain: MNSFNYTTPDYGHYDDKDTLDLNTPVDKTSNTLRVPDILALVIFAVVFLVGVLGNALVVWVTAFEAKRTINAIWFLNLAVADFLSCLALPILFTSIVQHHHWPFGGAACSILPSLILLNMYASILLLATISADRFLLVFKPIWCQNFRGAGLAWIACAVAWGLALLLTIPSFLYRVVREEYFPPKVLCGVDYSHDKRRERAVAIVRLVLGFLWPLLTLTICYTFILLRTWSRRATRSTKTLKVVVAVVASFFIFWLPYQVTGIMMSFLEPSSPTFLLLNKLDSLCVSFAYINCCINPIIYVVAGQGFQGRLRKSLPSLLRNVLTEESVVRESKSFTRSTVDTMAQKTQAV
Method: Exemplary anti-C5aR1 antibodies generated as described in Example 1 were tested for binding to human neutrophils. Briefly, cryopreserved human neutrophils were obtained from Asarte Biologics.

B1: antibody 332 (antibody, V domains shown)
VH: QVQLQQSDAELVKPGASVKISCKASGYTFTDHSIHWVKQRPEQGLEWIGYISPGNGDIKYDEKFKGKATLTADTSSSTAYMQLNSLTSEDSAVYFCKGPLLLRWRYFYPVDYWGQGTTVTVSS
VL: DIVMTQSQKFMSSAVGDRVTITCKASQNVGAAVAWYQQKPGQSPKLLLYSASIRYTGVPDRFTGSGSGTDFTLTISNIQSEDLAHFFCQQYNSFPLTFGGGTKLEIK
B1: no binding (tested: 10 gg/mL (so in the source)) [1]; binds [2].

B2: antibody 335 (antibody, V domains shown)
VH: QVQLQQSDAALVKPGASVKISCKASGYTFTDHAIHWVKQRPEQGLEWIGYISPGNGDIKYNEKFKGKATLTADKSSSTAYMQLNSLTSEDSAVYFCKGPLLVRWRYYITMDYWGQGTTVTVSS
VL: DIVMTQSQKFMSTTVGDRVSITCKASQNVGAAVVWYQQKPGQSPKLLIYSASYRYTGVPDRFTGSGSGTDFTLTISNMQSEDVADYFCQQYNSFPLTFGGGTKLEIK
B2: no binding (tested: 10 gg/mL (so in the source)) [1]; binds [2].
